Test results taken from paper PMC11439917 (Nature Communications, 2024).

Biological target: human full-length LRRK2 (leucine-rich repeat kinase 2), purified (human, UniProt Q5S007 1-2527)
Test: cryo-EM structure

human full-length LRRK2 (leucine-rich repeat kinase 2), purified, sequence (Q5S007 whole entry): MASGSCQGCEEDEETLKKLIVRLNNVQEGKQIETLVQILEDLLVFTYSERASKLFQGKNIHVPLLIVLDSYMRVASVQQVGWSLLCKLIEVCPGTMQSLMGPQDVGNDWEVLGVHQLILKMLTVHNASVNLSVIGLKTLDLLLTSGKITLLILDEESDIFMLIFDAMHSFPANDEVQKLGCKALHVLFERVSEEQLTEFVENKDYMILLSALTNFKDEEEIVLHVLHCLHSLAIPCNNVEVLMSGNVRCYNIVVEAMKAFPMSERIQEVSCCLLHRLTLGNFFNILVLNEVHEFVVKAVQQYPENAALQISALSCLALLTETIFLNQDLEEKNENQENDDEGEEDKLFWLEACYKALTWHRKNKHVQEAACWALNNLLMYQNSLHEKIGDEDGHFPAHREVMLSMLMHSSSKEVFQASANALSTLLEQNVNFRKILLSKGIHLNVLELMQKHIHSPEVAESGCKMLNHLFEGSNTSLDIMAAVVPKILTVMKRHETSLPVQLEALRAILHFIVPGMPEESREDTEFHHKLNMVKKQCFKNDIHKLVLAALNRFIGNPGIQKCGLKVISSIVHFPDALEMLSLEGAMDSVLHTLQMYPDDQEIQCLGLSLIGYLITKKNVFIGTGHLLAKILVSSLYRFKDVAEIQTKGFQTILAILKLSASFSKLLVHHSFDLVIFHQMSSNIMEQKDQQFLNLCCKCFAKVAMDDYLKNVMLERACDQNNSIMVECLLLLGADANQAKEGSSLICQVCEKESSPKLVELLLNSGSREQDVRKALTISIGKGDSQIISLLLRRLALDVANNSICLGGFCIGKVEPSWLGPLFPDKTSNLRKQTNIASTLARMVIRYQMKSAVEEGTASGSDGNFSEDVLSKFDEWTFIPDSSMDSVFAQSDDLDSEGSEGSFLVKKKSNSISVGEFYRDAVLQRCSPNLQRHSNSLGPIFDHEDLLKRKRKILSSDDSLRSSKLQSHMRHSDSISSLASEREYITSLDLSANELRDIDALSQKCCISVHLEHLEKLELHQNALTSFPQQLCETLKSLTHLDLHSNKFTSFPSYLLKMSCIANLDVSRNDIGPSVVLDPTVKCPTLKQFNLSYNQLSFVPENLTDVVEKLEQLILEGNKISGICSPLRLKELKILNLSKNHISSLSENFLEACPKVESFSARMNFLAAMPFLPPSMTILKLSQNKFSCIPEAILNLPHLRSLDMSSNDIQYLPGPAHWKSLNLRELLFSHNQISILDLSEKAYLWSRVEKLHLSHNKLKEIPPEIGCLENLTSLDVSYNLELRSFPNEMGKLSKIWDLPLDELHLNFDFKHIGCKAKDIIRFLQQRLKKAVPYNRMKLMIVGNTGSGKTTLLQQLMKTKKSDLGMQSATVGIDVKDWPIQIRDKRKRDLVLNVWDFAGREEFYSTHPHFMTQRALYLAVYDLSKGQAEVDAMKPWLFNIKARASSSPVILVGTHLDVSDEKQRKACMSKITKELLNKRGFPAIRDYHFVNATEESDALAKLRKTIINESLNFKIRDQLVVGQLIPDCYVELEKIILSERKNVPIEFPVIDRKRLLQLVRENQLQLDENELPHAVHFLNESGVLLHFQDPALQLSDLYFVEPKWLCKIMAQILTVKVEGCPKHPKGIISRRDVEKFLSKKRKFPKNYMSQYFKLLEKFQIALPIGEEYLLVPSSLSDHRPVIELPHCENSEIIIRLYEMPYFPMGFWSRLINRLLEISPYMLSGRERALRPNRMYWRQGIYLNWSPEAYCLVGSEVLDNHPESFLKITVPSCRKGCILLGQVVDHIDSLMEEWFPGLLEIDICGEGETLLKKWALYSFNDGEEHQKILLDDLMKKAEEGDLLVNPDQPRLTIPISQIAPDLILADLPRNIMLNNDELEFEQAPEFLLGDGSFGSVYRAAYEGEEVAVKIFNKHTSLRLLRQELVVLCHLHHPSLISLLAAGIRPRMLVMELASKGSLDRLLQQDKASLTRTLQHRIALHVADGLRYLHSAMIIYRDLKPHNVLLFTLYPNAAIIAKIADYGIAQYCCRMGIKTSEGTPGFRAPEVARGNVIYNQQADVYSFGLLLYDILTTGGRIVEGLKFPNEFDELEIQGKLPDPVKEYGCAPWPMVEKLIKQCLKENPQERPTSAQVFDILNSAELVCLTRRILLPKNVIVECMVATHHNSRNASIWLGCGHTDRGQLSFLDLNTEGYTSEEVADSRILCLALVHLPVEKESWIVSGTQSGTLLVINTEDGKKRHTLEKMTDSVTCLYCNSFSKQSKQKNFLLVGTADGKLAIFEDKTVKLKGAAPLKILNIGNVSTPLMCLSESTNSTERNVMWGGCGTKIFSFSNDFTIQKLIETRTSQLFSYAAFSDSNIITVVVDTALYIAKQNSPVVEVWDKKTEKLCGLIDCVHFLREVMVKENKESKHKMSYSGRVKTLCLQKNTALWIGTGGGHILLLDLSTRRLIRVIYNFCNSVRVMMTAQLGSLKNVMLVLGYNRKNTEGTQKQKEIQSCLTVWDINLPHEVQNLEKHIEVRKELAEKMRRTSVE

binding result: binds
B1: human RAB12 (residues 36-211) Q101L, GppNHp-bound (domain or fragment)
chain: PRPADFKLQVIIIGSRGVGKTSLMERFTDDTFCEACKSTVGVDFKIKTVELRGKKIRLQIWDTAGLERFNSITSAYYRSAKGIILVYDITKKETFDDLPKWMKMIDKYASEDAELLLVGNKLDCETDREITRQQGEKFAQQITGMRFCEASAKDNFNVDEIFLKLVDDILKKMPLD
